B1: Flag-PLK4 wt (polo-like kinase 4), full-length [human] / DCAF1 (VprBP), endogenous [human (endogenous in HEK293T)] (parent complex)
chain 1: MATCIGEKIEDFKVGNLLGKGSFAGVYRAESIHTGLEVAIKMIDKKAMYKAGMVQRVQNEVKIHCQLKHPSILELYNYFEDSNYVYLVLEMCHNGEMNRYLKNRVKPFSENEARHFMHQIITGMLYLHSHGILHRDLTLSNLLLTRNMNIKIADFGLATQLKMPHEKHYTLCGTPNYISPEIATRSAHGLESDVWSLGCMFYTLLIGRPPFDTDTVKNTLNKVVLADYEMPSFLSIEAKDLIHQLLRRNPADRLSLSSVLDHPFMSRNSSTKSKDLGTVEDSIDSGHATISTAITASSSTSISGSLFDKRRLLIGQPLPNKMTVFPKNKSSTDFSSSGDGNSFYTQWGNQETSNSGRGRVIQDAEERPHSRYLRRAYSSDRSGTSNSQSQAKTYTMERCHSAEMLSVSKRSGGGENEERYSPTDNNANIFNFFKEKTSSSSGSFERPDNNQALSNHLCPGKTPFPFADPTPQTETVQQWFGNLQINAHLRKTTEYDSISPNRDFQGHPDLQKDTSKNAWTDTKVKKNSDASDNAHSVKQQNTMKYMTALHSKPEIIQQECVFGSDPLSEQSKTRGMEPPWGYQNRTLRSITSPLVAHRLKPIRQKTKKAVVSILDSEEVCVELVKEYASQEYVKEVLQISSDGNTITIYYPNGGRGFPLADRPPSPTDNISRYSFDNLPEKYWRKYQYASRFVQLVRSKSPKITYFTRYAKCILMENSPGADFEVWFYDGVKIHKTEDFIQVIEKTGKSYTLKSESEVNSLKEEIKMYMDHANEGHRICLALESIISEEERKTRSAPFFPIIIGRKPGSTSSPKALSPPPSVDSNYPTRERASFNRMVMHSAASPTQAPILNPSMVTNEGLGLTTTASGTDISSNSLKDCLPKSAQLLKSVFVKNVGWATQLTSGAVWVQFNDGSQLVVQAGVSSISYTSPNGQTTRYGENEKLPDYIKQKLQCLSSILLMFSNPTPNFH
chain 2: not shown
B2: Flag-PLK4 wt (polo-like kinase 4), full-length [human] / CEP192, endogenous [human (endogenous in HEK293T)] (parent complex)
chain 1: B1 chain 1
chain 2: MEDFRGIAEESFPSFLTNSLFGNSGILENVTLSSNLGLPVAVSTLARDRSSTDNRYPDIQASYLVEGRFSVPSGSSPGSQSDAEPRERLQLSFQDDDSISRKKSYVESQRLSNALSKQSALQMETAGPEEEPAGATESLQGQDLFNRASPLEQAQDSPIDFHLQSWMNNKEPKIVVLDAGKHFEDKTLKSDLSHTSLLENEKLILPTSLEDSSDDDIDDEMFYDDHLEAYFEQLAIPGMIYEDLEGPEPPEKGFKLPTNGLRQANENGSLNCKFQSENNSSLISLDSHSSETTHKESEESQVICLPGTSNSIGTGDSRRYTDGMLPFSSGTWGTEKEIENLKGIVPDLNSECASKDVLVKTLRAIDVKLNSDNFHDANANRGGFDLTDPVKQGAECPHQNKTVLHMDGCLDTETPTVSIQENVDVASLKPISDSGINFTDAIWSPTCERRTCECHESIEKNKDKTDLPQSVVYQNEEGRWVTDLAYYTSFNSKQNLNVSLSDEMNEDFRSGSEAFDLIAQDEEEFNKEHQFIQEENIDAHNTSVALGDTSWGATINYSLLRKSRSTSDLDKDDASYLRLSLGEFFAQRSEALGCLGGGNNVKRPSFGYFIRSPEKREPIALIRKSDVSRGNLEKEMAHLNHDLYSGDLNEQSQAQLSEGSITLQVEAVESTSQVDENDVTLTADKGKTEDTFFMSNKPQRYKDKLPDSGDSMLRISTIASAIAEASVNTDPSQLAAMIKALSNKTRDKTFQEDEKQKDYSHVRHFLPNDLEKSNGSNALDMEKYLKKTEVSRYESALENFSRASMSDTWDLSLPKEQTTQDIHPVDLSATSVSVRAPEENTAAIVYVENGESENQESFRTINSSNSVTNRENNSAVVDVKTCSIDNKLQDVGNDEKATSISTPSDSYSSVRNPRITSLCLLKDCEEIRDNRENQRQNECVSEISNSEKHVTFENHRIVSPKNSDLKNTSPEHGGRGSEDEQESFRPSTSPLSHSSPSEISGTSSSGCALESFGSAAQQQQPPCEQELSPLVCSPAGVSRLTYVSEPESSYPTTATDDALEDRKSDITSELSTTIIQGSPAALEERAMEKLREKVPFQNRGKGTLSSIIQNNSDTRKATETTSLSSKPEYVKPDFRWSKDPSSKSGNLLETSEVGWTSNPEELDPIRLALLGKSGLSCQVGSATSHPVSCQEPIDEDQRISPKDKSTAGREFSGQVSHQTTSENQCTPIPSSTVHSSVADMQNMPAAVHALLTQPSLSAAPFAQRYLGTLPSTGSTTLPQCHAGNATVCGFSGGLPYPAVAGEPVQNSVAVGICLGSNIGSGWMGTSSLCNPYSNTLNQNLLSTTKPFPVPSVGTNCGIEPWDSGVTSGLGSVRVPEELKLPHACCVGIASQTLLSVLNPTDRWLQVSIGVLSISVNGEKVDLSTYRCLVFKNKAIIRPHATEEIKVLFIPSSPGVFRCTFSVASWPCSTDAETIVQAEALASTVTLTAIAESPVIEVETEKKDVLDFGDLTYGGWKALPLKLINRTHATVPIRLIINANAVAWRCFTFSKESVRAPVEVAPCADVVTRLAGPSVVNHMMPASYDGQDPEFLMIWVLFHSPKKQISSSDILDSAEEFSAKVDIEVDSPNPTPVLRSVSLRARAGIARIHAPRDLQTMHFLAKVASSRKQHLPLKNAGNIEVYLDIKVPEQGSHFSVDPKNLLLKPGEEHEVIVSFTPKDPEACEERILKIFVQPFGPQYEVVLKGEVISSGSKPLSPGPCLDIPSILSNKQFLAWGGVPLGRTQLQKLALRNNSASTTQHLRLLIRGQDQDCFQLQNTFGSEQRLTSNCEIRIHPKEDIFISVLFAPTRLSCMLARLEIKQLGNRSQPGIKFTIPLSGYGGTSNLILEGVKKLSDSYMVTVNGLVPGKESKIVFSVRNTGSRAAFVKAVGFKDSQKKVLLDPKVLRIFPDKFVLKERTQENVTLIYNPSDRGINNKTATELSTVYLFGGDEISRQQYRRALLHKPEMIKQILPEHSVLQNINFVEAFQDELLVTEVYDLPQRPNDVQLFYGSMCKIILSVIGEFRDCISSREFLQPSSKASLESTSDLGASGKHGGNVSLDVLPVKGPQGSPLLSRAARPPLDQLASEEPWTVLPEHLILVAPSPCDMAKTGRFQIVNNSVRLLRFELCWPAHCLTVTPQHGCVAPESKLQILVSPNSSLSTKQSMFPWSGLIYIHCDDGQKKIVKVQIREDLTQVELLTRLTSKPFGILSPVSEPSVSHLVKPMTKPPSTKVEIRNKSITFPTTEPGETSESCLELENHGTTDVKWHLSSLAPPYVKGVDESGDVFRATYAAFRCSPISGLLESHGIQKVSITFLPRGRGDYAQFWDVECHPLKEPHMKHTLRFQLSGQSIEAENEPENACLSTDSLIKIDHLVKPRRQAVSEASARIPEQLDVTARGVYAPEDVYRFRPTSVGESRTLKVNLRNNSFITHSLKFLSPREPFYVKHSKYSLRAQHYINMPVQFKPKSAGKFEALLVIQTDEGKSIAIRLIGEALGKN
B3: Flag-PLK4 wt (polo-like kinase 4), full-length [human] / CEP152, endogenous [human (endogenous in HEK293T)] (parent complex)
chain 1: B1 chain 1
chain 2: MSLDFGSVALPVQNEDEEYDEEDYEREKELQQLLTDLPHDMLDDDLSSPELQYSDCSEDGTDGQPHHPEQLEMSWNEQMLPKSQSVNGYNEIQSLYAGEKCGNVWEENRSKTEDRHPVYHPEEGGDEGGSGYSPPSKCEQTDLYHLPENFRPYTNGQKQEFNNQATNVIKFSDPQWNHFQGPSCQGLEPYNKVTYKPYQSSAQNNGSPAQEITGSDTFEGLQQQFLGANENSAENMQIIQLQVLNKAKERQLENLIEKLNESERQIRYLNHQLVIIKDEKDGLTLSLRESQKLFQNGKEREIQLEAQIKALETQIQALKVNEEQMIKKSRTTEMALESLKQQLVDLHHSESLQRAREQHESIVMGLTKKYEEQVLSLQKNLDATVTALKEQEDICSRLKDHVKQLERNQEAIKLEKTEIINKLTRSLEESQKQCAHLLQSGSVQEVAQLQFQLQQAQKAHAMSANMNKALQEELTELKDEISLYESAAKLGIHPSDSEGELNIELTESYVDLGIKKVNWKKSKVTSIVQEEDPNEELSKDEFILKLKAEVQRLLGSNSMKRHLVSQLQNDLKDCHKKIEDLHQVKKDEKSIEVETKTDTSEKPKNQLWPESSTSDVVRDDILLLKNEIQVLQQQNQELKETEGKLRNTNQDLCNQMRQMVQDFDHDKQEAVDRCERTYQQHHEAMKTQIRESLLAKHALEKQQLFEAYERTHLQLRSELDKLNKEVTAVQECYLEVCREKDNLELTLRKTTEKEQQTQEKIKEKLIQQLEKEWQSKLDQTIKAMKKKTLDCGSQTDQVTTSDVISKKEMAIMIEEQKCTIQQNLEQEKDIAIKGAMKKLEIELELKHCENITKQVEIAVQNAHQRWLGELPELAEYQALVKAEQKKWEEQHEVSVNKRISFAVSEAKEKWKSELENMRKNILPGKELEEKIHSLQKELELKNEEVPVVIRAELAKARSEWNKEKQEEIHRIQEQNEQDYRQFLDDHRNKINEVLAAAKEDFMKQKTELLLQKETELQTCLDQSRREWTMQEAKRIQLEIYQYEEDILTVLGVLLSDTQKEHISDSEDKQLLEIMSTCSSKWMSVQYFEKLKGCIQKAFQDTLPLLVENADPEWKKRNMAELSKDSASQGTGQGDPGPAAGHHAQPLALQATEAEADKKKVLEIKDLCCGHCFQELEKAKQECQDLKGKLEKCCRHLQHLERKHKAVVEKIGEENNKVVEELIEENNDMKNKLEELQTLCKTPPRSLSAGAIENACLPCSGGALEELRGQYIKAVKKIKCDMLRYIQESKERAAEMVKAEVLRERQETARKMRKYYLICLQQILQDDGKEGAEKKIMNAASKLATMAKLLETPISSKSQSKTTQSALPLTSEMLIAVKKSKRNDVNQKIPCCIESKSNSVNTITRTLCEQAPKRRAACNLQRLLENSEHQSIKHVGSKETHLEFQFGDGSCKHLNSLPRNVSPEFVPCEGEGGFGLHKKKDLLSDNGSESLPHSAAYPFLGTLGNKPSPRCTPGPSESGCMHITFRDSNERLGLKVYKCNPLMESENAASEKSQGLDVQEPPVKDGGDLSDCLGWPSSSATLSFDSREASFVHGRPQGTLEIPSESVKSKQFSPSGYLSDTEESNMICQTMKCQRYQTPYLSEETTYLEPGKISVNCGHPSRHKADRLKSDFKKLSSTLPSSVCQQPSRKLIVPLSSQQDSGFDSPFVNLD

The variants in the first assay derive from B1. The assay can be described thus: co-immunoprecipitation (IP against Flag tag, Western blot quantification); HEK293T cells, 48 h overexpression, N = 3; read off a plot.
Consider chain 1 K699A, for which the ratio to parent is about 0.
Same read-out and setting: then chain 1 I602E, with about 0.01; and chain 1 R691A, with about 0.05; and chain 1 K608A, with about 0.

The variants in another assay derive from B1. The description is as above. The source holds these as a separate data set.
As for chain 1 S285A, chain 1 T289A, the ratio to parent is about 0.58.
chain 1 K41R: the ratio to parent was about 0.79.

In the next assay the parent is B1. The description is as above. The source holds these as a separate data set.
As to chain 1 K753A, the ratio to parent was about 1.6.
Still for that read-out and setting: for chain 1 K748A the value was about 1.5.

Variants of B2 are the subject of the next assay. The description is as above.
Regarding chain 1 K699A, the ratio to parent is about 0.1.
Still for that read-out and setting: for chain 1 R691A the value was about 1.5; for chain 1 I602E, about 0.01.
Same read-out and setting: then chain 1 K608A, with about 0.1.

In a further assay the parent is B3. The description is as above.
On to chain 1 I602E, for which the ratio to parent is about 0.03.
Turning to chain 1 R691A, the ratio to parent was about 0.83.
For the variant chain 1 K699A, the ratio to parent is about 0.09.
On the same count and under the same terms, then chain 1 K608A, with about 0.16.

Source of the values: PMC10942865 (2024).
